The results in this text go back to PMC3163267, “Structure and Organisation of SinR, the Master Regulator of Biofilm Formation in Bacillus subtilis” (Journal of Molecular Biology, 2011).

For orientation: stoichiometry N means a count of units in the complex or per binding partner. The term Kd denotes the constant that tells how readily two partners part at equilibrium.

The chains are these.
B3: SinR (natural protein, B. subtilis, UniProt P06533 1-111, looked up)
chain: MIGQRIKQYRKEKGYSLSELAEKAGVAKSYLSSIERNLQTNPSIQFLEKVSAVLDVSVHTLLDEKHETEYDGQLDSEWEKLVRDAMTSGVSKKQFREFLDYQKWRKSQKEE
notes: After cleavage with human rhinovirus 3C protease a residual N-terminal Gly-Pro-Ala is expected to remain; Tetramer by SEC-MALLS; also called intact SinR; full-length SinR; not shown: His6, N-terminal, cleaved

The target in series [1] is B3. As to the kind of experiment: SEC-MALS; SEC-MALLS on Superdex 75 HR 10/30; 25 mM Tris pH 8.5, 200 mM NaCl, 0.5 mM EDTA; 100 µl samples of 1 mg/ml protein or an equimolar mixture of SinR and SinI. The note with it: both partners purified. Background: In gel filtration, larger molecules generally elute earlier.
Series [2] concerns the molecule itself. Described as above.
For series [3], the target named is T1, SinR (Bacillus subtilis, UniProt P06533 1-111).
T1 sequence: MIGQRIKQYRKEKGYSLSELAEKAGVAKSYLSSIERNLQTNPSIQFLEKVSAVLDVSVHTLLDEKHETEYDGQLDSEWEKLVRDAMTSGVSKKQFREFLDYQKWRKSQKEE
As to the kind of experiment: fluorescence anisotropy; FA: 10 mM Hepes pH 8.0, 100 mM NaCl, 1 mM DTT, 1 mM EDTA, 5 nM HEX-DNA, 25 C; SPR: 10 mM Hepes pH 8.0, 150 mM NaCl, 3 mM EDTA, 0.05% P20. The note with it: protein: recombinant; tags: N-terminal Gly-Pro-Ala left after 3C cleavage of His6 tag; chain copies: 4; label: 5' HEX on one strand; 22 bp. Background: Polarisation of emitted light reports the rotation of a fluorescent probe.

B1: SinI (natural protein, B. subtilis, UniProt P23308 1-57, looked up)
chain: MKNAKQEHFELDQEWVELMVEAKEANISPEEIRKYLLLNKKSAHPGPAARSHTVNPF
notes: Cloned into the same modified pET28 vector and cleaved as described for SinR, so a residual N-terminal Gly-Pro-Ala probably remains (surmised); Dimer by SEC-MALLS
B1: the “stoichiometry N” value turned out to be 1 in the series with SinR [1] and 2 in series [2].

B2: tandem repeat SinRBM duplex (dsDNA)
DNA 1: GTCGTTCTCTCGTTCTCTATAA
DNA 2: TTATAGAGAACGAGAGAACGAC
Regarding B2, the Kd with SinR [3] came out at 3.7 µM.
Take B3: the “stoichiometry N” value in series [2] is 4.

B4: single-site SinRBM duplex (dsDNA)
DNA 1: AATTTTTCGTTCTTTATAAAAT
DNA 2: ATTTTATAAAGAACGAAAAATT
B4: the Kd with SinR [3] worked out at 2.8 µM.

B5: SinR(74–111) (domain or fragment, B. subtilis, UniProt P06533 74-111, looked up)
chain: LDSEWEKLVRDAMTSGVSKKQFREFLDYQKWRKSQKEE
notes: SinR, Bacillus subtilis, C-terminal domain, residues 74–111; A selenomethionine form was also crystallised; also called C-terminal domain of SinR; not shown: His6, N-terminal, cleaved
As for B5, in series [2], the “stoichiometry N” value was found to be 4.
